According to patent US5543312A, “Pastuerella haemolytica glycoprotease gene and the purified enzyme” (priority 1991, dated 1996):

Assays:
[1] = test system: P. haemolytica glycoprotease; experiment: Cleavage of cell surface antigens of surface-125I-iodinated KG1a cells, immunoprecipitation and SDS-PAGE; assay type: cell-based
Text: In our previous work, we have concentrated on the cleavage of human erythrocyte glycophorin A by the P. haemolytica glycoprotease Udoh et al. 1986. Univ. of Guelph; Abdullah et al. 1988. Proc. Canad. Fed. Biol. Socs.; Abdullah et al. 1990. Biochem. Soc. Trans. This substrate is well-characterized erythrocyte surface O-sialoglycoprotein and is readily available for biochemical analysis. However, it is clear that the physiological targets of this enzyme are not erthrocyte antigens but are probably O-sialoglycoproteins on the surfaces of leukocytes or endothelial cells. SDS-PAGE analysis of immunoprecipitations performed with specific monoclonal antibodies on lysates of surface-^125 I-iodinated KG1a cells, a primitive myeloid/T-lymphois stem cell line Koeffler et al. 1977. Science 200, have shown that the O-sialoglycoprotein cell surface antigens CD34 Civin et al. 1989. Leucocyte Typing IV, Oxford Univ. Press. CD43/leucosialin Killeen et al. 1987. EMBO J.; Pallant et al. 1989. PNAS, CD44/lyaluronic acid receptor Stamenkovic et al. 1989. Cell; Aruffo et al. 1990. Cell and CD45/leucocyte common antigen Thomas et al. 1989. Annu. REv. Immunol.; Pulido et al. 1989. J. Immunol. are all cleaved by the glycoprotease. Although the glycoprotease-sensitive structures contain some N-linked glycans they are all extensively glycosylated with O-linked carbohydrates. However, the N-linked glycoproteins CD18/11^a, 11^b, 11^c /leukocyte integrins Arnaout et al. 1990. Blood, CD71/transferrin receptor Shae et al. 1986. Cell, HLA class I Owen et al. 1980. J. Biol. Chem., and 8A3 antigens Sutherland et al. Blood (in press, Jan. 1991), which lack O-sialo-residues, were resistant to the action of the enzyme.

[2] = molecular target: P. haemolytica A1 protease (Mannheimia haemolytica, UniProt P36175); assay type: biochemical; conditions: FIG. 9; SDS-PAGE autoradiography
[3] = test system: P. haemolytica glycoprotease; experiment: Removal of CD34 epitopes on KG1/KG1a cells (fluorescence microscopy, flow cytometry, western blotting); assay type: cell-based
Text: Blood; Katz et al. 1985. Leuk. Res. which detects a sialic acid-dependent epitope on this glycoprotein Watt et al. 1987. Leukaemia; and Sutherland et al. 1988. Leukaemia. We have assessed the ability of this enzyme to remove CD34 epitopes recognized by all seven CD34 antibodies designated by the 4th Leucocyte Antigen Workshop Civin et al. 1989. Leukocyte Typing IV, Oxford Univ. Press. We have shown by fluorescence microscopy, quantitative flow cytometry and western blotting, that sialic acid-dependent epitopes, recognized by antibodies B1.3C5, MY10 Civin et al. 1984. J. Immunol. and 12.8 Andrews et la. 1986. […] Leukaemia and 188.24 Sutherland et al. Leukaemia. In contrast, the sialic acid-independent epitopes by 115.2 Andrew et al. 1986. Blood and TUK3 Civin et al. 1989. Leucocyte Typing IV, Oxford Univ. […] As previously for the cleavage of glycophorin, the enzyme requires the presence of sialyted residues on its substrate and the prior treatment of KGla cells with neuraminidase reduced the ability of the glycoprotease to cleave the ICH3 and 188.24 epitopes Sutherland et al. 1990. Blood (in press). The differential sensitivity of certain CD34 epitopes to cleavage with either neuraminidase and/or glycoprotease establishes 3 classes of epitopes:(Class 1) those like MY 10,B1.3C5 and 12.8 which are removed both by neuraminidase and by the glycoprotease;(Class II) those like ICH3 and 188.24 which are removed only by the glycoprotease; (Class III) those like TUK3 and 115.2

B1: CD43/leucosialin: O-sialoglycoprotein cell surface antigen, leukosialin/sialophorin (protein)
chain: STTAVQTPTSGEPLVSTSEPLSSKMYTTSITSDPKADSTGDQTSALPPSTSINEGSPLWTSIGASTGSPLPEPTTYQEVSIKMSSVPQETPHATSHPAVPITANSLGSHTVTGGTITTNSPETSSRTSGAPVTTAASSLETSRGTSGPPLTMATVSLETSKGTSGPPVTMATDSLETSTGTTGPPVTMTTGSLEPSSGASGPQVSSVKLSTMMSPTTSTNASTVPFRNPDENSRGMLPVAVLVALLAVIVLVALLLLWRRRQKRRTGALVLSRGGKRNGVVDAWAGPAQVPEEGAVTVTVGGSGGDKGSGFPDGEGSSRRPTLTTFFGRRKSRQGSLAMEELKSGSGPSLKGEEEPLVASEDGAVDAPAPDEPEGGDGAAP
modifications: O-sialoglycosylated
In the case of B1, the “Cleavage of cell surface antigen by the glycoprotease” value (“Cleavage of cell surface antigen” below) [1] is reported as “cleaved”.

B2: CD45/leucocyte common antigen: O-sialoglycoprotein cell surface antigen, leukocyte common antigen (protein)
chain: QSPTPSPTGLTTAKMPSVPLSSDPLPTHTTAFSPASTFERENDFSETTTSLSPDNTSTQVSPDSLDNASAFNTTGVSSVQTPHLPTHADSQTPSAGTDTQTFSGSAANAKLNPTPGSNAISDVPGERSTASTFPTDPVSPLTTTLSLAHHSSAALPARTSNTTITANTSDAYLNASETTTLSPSGSAVISTTTIATTPSKPTCDEKYANITVDYLYNKETKLFTAKLNVNENVECGNNTCTNNEVHNLTECKNASVSISHNSCTAPDKTLILDVPPGVEKFQLHDCTQVEKADTTICLKWKNIETFTCDTQNITYRFQCGNMIFDNKEIKLENLEPEHEYKCDSEILYNNHKFTNASKIIKTDFGSPGEPQIIFCRSEAAHQGVITWNPPQRSFHNFTLCYIKETEKDCLNLDKNLIKYDLQNLKPYTKYVLSLHAYIIAKVQRNGSAAMCHFTTKSAPPSQVWNMTVSMTSDNSMHVKCRPPRDRNGPHERYHLEVEAGNTLVRNESHKNCDFRVKDLQYSTDYTFKAYFHNGDYPGEPFILHHSTSYNSKALIAFLAFLIIVTSIALLVVLYKIYDLHKKRSCNLDEQQELVERDDEKQLMNVEPIHADILLETYKRKIADEGRLFLAEFQSIPRVFSKFPIKEARKPFNQNKNRYVDILPYDYNRVELSEINGDAGSNYINASYIDGFKEPRKYIAAQGPRDETVDDFWRMIWEQKATVIVMVTRCEEGNRNKCAEYWPSMEEGTRAFGDVVVKINQHKRCPDYIIQKLNIVNKKEKATGREVTHIQFTSWPDHGVPEDPHLLLKLRRRVNAFSNFFSGPIVVHCSAGVGRTGTYIGIDAMLEGLEAENKVDVYGYVVKLRRQRCLMVQVEAQYILIHQALVEYNQFGETEVNLSELHPYLHNMKKRDPPSEPSPLEAEFQRLPSYRSWRTQHIGNQEENKSKNRNSNVIPYDYNRVPLKHELEMSKESEHDSDESSDDDSDSEEPSKYINASFIMSYWKPEVMIAAQGPLKETIGDFWQMIFQRKVKVIVMLTELKHGDQEICAQYWGEGKQTYGDIEVDLKDTDKSSTYTLRVFELRHSKRKDSRTVYQYQYTNWSVEQLPAEPKELISMIQVVKQKLPQKNSSEGNKHHKSTPLLIHCRDGSQQTGIFCALLNLLESAETEEVVDIFQVVKALRKARPGMVSTFEQYQFLYDVIASTYPAQNGQVKKNNHQEDKIEFDNEVDKVKQDANCVNPLGAPEKLPEAKEQAEGSEPTSGTEGPEHSVNGPASPALNQGS
modifications: O-sialoglycosylated
With B2 the “Cleavage of cell surface antigen” value [1] was “cleaved”.

B3: glycophorin A: major sialoglycopeptide of the human erythrocyte membrane (protein, UniProt P02724 20-150, looked up)
Glycophorin-A: LSTTEVAMHTSTSSSVTKSYISSQTNDTHKRDTYAATPRAHEVSEISVRTVYPPEEETGERVQLAHHFSEPEITLIIFGVMAGVIGTILLISYGIRRLIKKSPSDVKPLPSPDTDVPLSSVEIENPETSDQ
With B3 the “Hydrolysis of [125I]-glycophorin A forms by P. haemolytica A1 pH 4.5 fraction” value [2] was “total hydrolysis”.

B4: CD34: O-sialoglycoprotein cell surface antigen, primitive bone marrow stem cell antigen (protein, UniProt P28906 32-385, looked up)
Hematopoietic progenitor cell …: SLDNNGTATPELPTQGTFSNVSTNVSYQETTTPSTLGSTSLHPVSQHGNEATTNITETTVKFTSTSVITSVYGNTNSSVQSQTSVISTVFTTPANVSTPETTLKPSLSPGNVSDLSTTSTSLATSPTKPYTSSSPILSDIKAEIKCSGIREVKLTQGICLEQNKTSSCAEFKKDRGEGLARVLCGEEQADADAGAQVCSLLLAQSEVRPQCLLLVLANRTEISSKLQLMKKHQSDLKKLGILDFTEQDVASHQSYSQKTLIALVTSGALLAVLGITGYFLMNRRSWSPTGERLGEDPYYTENGGGQGYSSGPGTSPEAQGKASVNRGAQENGTGQATSRNGHSARQHVVADTEL
For B4, the “Cleavage of cell surface antigen” value [1] was “cleaved”, the “Removal of sialic acid-dependent epitopes recognized by antibodies B1.3C5, MY10 and 12.8” value [3] was “totally removed” and the “Removal of sialic acid-independent epitopes recognized by ICH3 and 188.24” value [3] was “totally removed”. For the same molecule, the “Sensitivity of sialic acid-independent epitopes recognized by 115.2 and TUK3” value [3] was “totally resistant” and the “Cleavage of CD34, loss of reactivity with anti-CD34 monoclonal antibody B1.3C5” value ([3]; KG1 cells) was “readily cleaved”.
